Target: CLSY3-3xF-BLRP (Arabidopsis) (UniProt F4I8S3)
Assay: co-IP; streptavidin beads (M-280 Dynabeads) capture CLSY3-3xF-BLRP from flower extracts of F1 plants crossed to NRPD1-3xF WT or CYC-AAAA; anti-FLAG western blot; dilution series of the WT co-IP

Chain of UniProt F4I8S3 (F4I8S3 whole entry): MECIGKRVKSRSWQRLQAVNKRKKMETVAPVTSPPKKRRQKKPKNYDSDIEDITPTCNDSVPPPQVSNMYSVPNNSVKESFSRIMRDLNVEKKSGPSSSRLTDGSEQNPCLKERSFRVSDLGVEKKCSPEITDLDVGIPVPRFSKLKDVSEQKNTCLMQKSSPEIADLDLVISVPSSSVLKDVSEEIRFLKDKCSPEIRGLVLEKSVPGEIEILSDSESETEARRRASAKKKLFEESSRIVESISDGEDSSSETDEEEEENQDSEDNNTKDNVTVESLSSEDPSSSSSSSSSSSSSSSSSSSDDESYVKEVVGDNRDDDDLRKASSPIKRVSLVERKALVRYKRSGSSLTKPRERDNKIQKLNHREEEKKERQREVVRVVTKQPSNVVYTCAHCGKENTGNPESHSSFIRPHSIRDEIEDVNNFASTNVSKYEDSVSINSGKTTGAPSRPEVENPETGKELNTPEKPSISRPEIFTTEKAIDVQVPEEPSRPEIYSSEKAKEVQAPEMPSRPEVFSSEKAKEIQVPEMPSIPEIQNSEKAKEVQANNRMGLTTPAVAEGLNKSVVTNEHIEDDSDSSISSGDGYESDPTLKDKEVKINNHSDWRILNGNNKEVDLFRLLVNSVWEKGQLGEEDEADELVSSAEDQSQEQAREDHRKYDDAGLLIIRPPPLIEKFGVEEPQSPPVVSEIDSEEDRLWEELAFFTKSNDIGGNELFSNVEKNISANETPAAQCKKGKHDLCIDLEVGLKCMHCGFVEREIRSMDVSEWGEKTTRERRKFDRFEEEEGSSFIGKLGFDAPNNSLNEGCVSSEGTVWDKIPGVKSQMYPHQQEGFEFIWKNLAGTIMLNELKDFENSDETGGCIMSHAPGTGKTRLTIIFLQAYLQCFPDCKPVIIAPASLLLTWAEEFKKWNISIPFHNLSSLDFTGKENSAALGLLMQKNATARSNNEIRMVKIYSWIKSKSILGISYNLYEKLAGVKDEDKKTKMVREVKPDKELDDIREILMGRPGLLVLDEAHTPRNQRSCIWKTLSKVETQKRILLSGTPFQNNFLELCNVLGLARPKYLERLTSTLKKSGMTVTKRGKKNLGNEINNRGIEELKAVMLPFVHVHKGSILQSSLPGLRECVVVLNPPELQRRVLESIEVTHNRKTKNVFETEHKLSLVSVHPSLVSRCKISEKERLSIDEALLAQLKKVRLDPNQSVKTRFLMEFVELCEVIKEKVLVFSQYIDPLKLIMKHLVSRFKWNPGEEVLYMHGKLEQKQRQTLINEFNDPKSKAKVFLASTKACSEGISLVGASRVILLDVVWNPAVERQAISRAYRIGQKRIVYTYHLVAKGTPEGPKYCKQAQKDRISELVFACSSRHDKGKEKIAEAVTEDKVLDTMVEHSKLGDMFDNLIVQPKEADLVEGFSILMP

- fold reduction of the co-IP against NRPD1-3xFWT: > 8 fold
Substance: NRPD1-3xF_(CYC-AAAA) (from UniProt Q9LQ02 1-1453) (natural protein)
